Data reported in US20120058118A1 (Boehringer Ingelheim, published 2012).
Changes are numbered by the printed parent chain. Ends that are not written are not given here. * marks the point of attachment. Biotin = O=C1N[C@H]2[C@H](CS[C@H]2CCCCC(=O)*)N1

T1: A-beta(12-28) peptide (human)
T1 construct: Bachem peptide captured on streptavidin chip; also called monomeric A-beta(12-28); central region
T1 peptide: Biotin-VHHQKLVFFAEDVGSNK

B1: ABII61F6 (VHH)
VHH: EVQLVESGGGLVQTGGSLRLSCAASGSTVNINAMGWYRQAPGKQRELVAIINKRGVTNYADSTEGRFTISRDNSKRTLYLQMNSLKPEDTAVYYCNAVVGRYGRTYGYWGQGTQVTVSS
B2: reference VHH 11G (VHH)
VHH: QVQLQESGGGLVQPGGSLRLSCAASGSIFSINTMAWYRQAPGKERDLVAAIISSGSTNYADSVKGRFTISRDNTKNTVYLQMNSLKLEDTAVYYCNAAIRRSVIDAWGAYWGQGTQVTVSS
notes: from WO2007/35092
B3: reference VHH 3A (VHH)
VHH: AVQLVESGGGLVRDGDSLRLSCAASGRTFSSYVMGWFRQAPGKEREFVAAIGWSGGSTAYADSVKGRFTISRDNARNTVYLQMNSLKPEDTAVYYCASAPTRWVPRDSRFYDRWGQGTRVTVSS
notes: from WO2007/35092
B4: reference VHH 31-1 (VHH)
VHH: EVQLQASGGGSVQPGGSLRLSCAASGFIFGWSTMSWVRQAPGKGLEWVSTISGGGSATTYTDSVKGRFTISRDRAKNTLYLQMNSLKPEDTAIYYCNADVSTGFRYQRKDYWGRGTQVTVSS
notes: from WO2004/44204; also called V31-1
B5: reference VHH 1B (VHH)
VHH: QVQLQESGGGLVQPGGSLRLSCAASEFTLDYYSIAWFRQAPGKEREGVSCISSYDGSTSYADSVKGRFTISRDNAKNTVYLQMNSLKPEDTAIYYCAAGIRDWATLREYEYDDWGQGTQVTVSS
notes: from WO2007/35092
B6: ABII014 (VHH)
VHH: EVQLLESGGGLVLPGGSLRLSCVHSGPTFRTDTMGWFRQAPGKGREFVAAVTWNSGRINYADSVKGRFTVSRDNTRNAAYLQMSGLRDEDTAVYYCTAHRFVVGGNRVEDWRYWGQGTLVTVSS
notes: humanized variant of ABII002
B7: ABII015 (VHH)
VHH: B6 VHH with R87K, D88A
notes: humanized variant of ABII002
B8: ABII016 (VHH)
VHH: B6 VHH with R87K, D88P
notes: humanized variant of ABII002
B9: ABII017 (VHH)
VHH: B6 VHH with R87K, T97A
notes: humanized variant of ABII002
B10: ABII018 (VHH)
VHH: B6 VHH with L13Q, R87K, D88P
notes: humanized variant of ABII002
B11: ABII019 (VHH)
VHH: EVQLLESGGGLVQPGGSLRLSCAHSGPTFRTDTMGWFRQAPGKGREFVAAVTWNSGRINYADSVKGRFTISRDNSKNTVYLQMNSLRPEDTAVYYCAAHRFVVGGNRVEDWRYWGQGTLVTVSS
notes: humanized variant of ABII002
B12: ABII020 (VHH)
VHH: B11 VHH with V79L
notes: humanized variant of ABII002
B13: ABII021 (VHH)
VHH: B11 VHH with T78A
notes: humanized variant of ABII002
B14: ABII022 (VHH)
VHH: B11 VHH with T78A, N84S
notes: humanized variant of ABII002
B15: ABII023 (VHH)
VHH: B11 VHH with T78A, V79A
notes: humanized variant of ABII002
B16: ABII024 (VHH)
VHH: B11 VHH with T78A, V79A, N84S
notes: humanized variant of ABII002
B17: ABII025 (VHH)
VHH: B11 VHH with N84S
notes: humanized variant of ABII002
B18: ABII026 (VHH)
VHH: B11 VHH with V79A
notes: humanized variant of ABII002
B19: ABII027 (VHH)
VHH: B11 VHH with V79A, N84S
notes: humanized variant of ABII002
B20: ABII028 (VHH)
VHH: B11 VHH with A23V
notes: humanized variant of ABII002
B21: ABII029 (VHH)
VHH: B11 VHH with A23V, V79L
notes: humanized variant of ABII002
B22: ABII030 (VHH)
VHH: B11 VHH with A23V, T78A
notes: humanized variant of ABII002
B23: ABII031 (VHH)
VHH: B11 VHH with A23V, T78A, N84S
notes: humanized variant of ABII002
B24: ABII032 (VHH)
VHH: B11 VHH with A23V, T78A, V79A
notes: humanized variant of ABII002
B25: ABII033 (VHH)
VHH: B11 VHH with A23V, T78A, V79A, N84S
notes: humanized variant of ABII002
B26: ABII034 (VHH)
VHH: B11 VHH with A23V, N84S
notes: humanized variant of ABII002
B27: ABII036 (VHH)
VHH: B11 VHH with A23V, V79A, N84S
notes: humanized variant of ABII002
B28: ABII315-PEG40 (designed binder)
chain: EVQLLESGGGLVQPGGSLRLSCAASGRTFNNYNMGWFRQAPGKGREFVAAVSRSGVSTYYADSVKGRFTISRDNSKNTVYLQMNSLRPEDTAVYYCAAAYRGTAINVRRSYSSWGQGTLVTVSSGGGGCGGGSEVQLLESGGGLVQPGGSLRLSCVHSGPTFRTDTMGWFRQAPGKGREFVAAVTWNSGRINYADSVKGRFTISRDNSKNTAYLQMNSLRPEDTAVYYCAAHRFVVGGNRVEDWRYWGQGTLVTVSS
modifications: PEG40 on the Cys at position 5 of the 9GS linker
notes: 059-9GSC-035; purified as His6-tagged construct before PEGylation
B29: ABII111B5_E109W (VHH)
VHH: B6 VHH with L5V, P14A, G44E, R87K, R107M, E109W, L119Q
notes: targeted mutant
B30: ABII111B5_F101W (VHH)
VHH: B6 VHH with L5V, P14A, G44E, R87K, F101W, R107M, L119Q
notes: targeted mutant
B31: ABII111B5_N106T (VHH)
VHH: B6 VHH with L5V, P14A, G44E, R87K, N106T, R107M, L119Q
notes: targeted mutant
B32: ABII111B5_N106V (VHH)
VHH: B6 VHH with L5V, P14A, G44E, R87K, N106V, R107M, L119Q
notes: targeted mutant
B33: ABII111B5_R30K (VHH)
VHH: B6 VHH with L5V, P14A, R30K, G44E, R87K, R107M, L119Q
notes: targeted mutant
B34: ABII111B5_R30W (VHH)
VHH: B6 VHH with L5V, P14A, R30W, G44E, R87K, R107M, L119Q
notes: targeted mutant
B35: ABII111E5cl1 (VHH)
VHH: B6 VHH with L5V, P14A, R30L, G44E, R87K, N106R, R107E, E109Q, L119Q
notes: c-myc and (His)6 tags
B36: ABIIPMP111B4 (VHH)
VHH: EVQLVESGGGLVLAGGSLRLSCVHSGPTFWTDTMGWFRQAPGKEREFVAAVTWSSGRANYADSVKGRFTVSRDNTRNAAYLQMSGLKDEDTAVYYCTAHRGVVGGWVVVDWRYWGQGTQVTVSS
notes: c-myc and (His)6 tags
B37: ABIIPMP111B9 (VHH)
VHH: B36 VHH with W30G, S54N, G101F, W106G, V107C, V109K
notes: c-myc and (His)6 tags
B38: ABIIPMP111C4 (VHH)
VHH: B36 VHH with W30L, S54N, G101S, W106V, V107G, V109W, G115S
notes: c-myc and (His)6 tags
B39: ABIIPMP111C6 (VHH)
VHH: B36 VHH with S54N, A58L, G101Q, W106V, V107Q, V109L
notes: c-myc and (His)6 tags
B40: ABIIPMP111E4 (VHH)
VHH: B36 VHH with W30S, S54N, A58T, H99A, G101L, V102T, G105S, W106L, V107S, V109G
notes: c-myc and (His)6 tags
B41: ABIIPMP111F2 (VHH)
VHH: EVQLVESGGGLVLAGGSLRLSCVHSGPTFSTDTMGWFRQAPGKEREFVAAVTWNSGRTNYADSVKGRFTVSRDNTRNAAYLQMSGLKDEDTAVYYCTANRHSVGRLSVGDWRYWGQGSQVTVSS
notes: c-myc and (His)6 tags

target: T2, aggregated A-beta(1-40) peptide (BAA) (human); assay: BAA ELISA
T2 construct: also called A-beta peptide aggregates

For B1, the EC50 was 14.5 nM.

target: T3, human A-beta(1-40) peptide, monomeric (BAM) (human, biotin at the C-terminus in capture ELISA, SPR and TR-FRET; not biotinylated where coated directly (Example 7)); assay: BAM ELISA
T3 construct: synthetic peptide (Anaspec), TFA/HFIP treated to give monomer; also called monomeric A-beta

With B1 the EC50 was 469 nM.

target: T2, aggregated A-beta(1-40) peptide (BAA); assay: BAA ELISA; remark: another data set of the same source

B2: no binding.
B3: no binding.
B4: no binding.
B5: no binding.

target: T3, human A-beta(1-40) peptide, monomeric …; assay: BAM ELISA; remark: another data set of the same source

B2: no binding.
B3: no binding.
B4: no binding.
B5: no binding.

Target: T1, A-beta(12-28) peptide
Assay: SPR on captured A-beta(12-28)
Description: After capturing, surfaces are blocked by injecting an excess (200 μg/ml) of d-biotin for 180 s at 5 μl/min. A reference surface is washed and blocked with d-biotin. HBS-EP+buffer is used as the running buffer and experiments are performed at 25° C. For off-rate screening, periplasmic extracts of VHHs are injected at a 10-fold dilution for 2 min at 45 μl/min and are allowed to dissociate for 10 min. […] Between different VHH samples, the surfaces are regenerated with regeneration buffer (50 mM NaOH) for 25 s at 45 μl/min followed by 10 s 6M GuHCl at 45 μl/min if regeneration is incomplete. […] Data are double referenced by subtraction of the curves on the reference channel and of a blank running buffer injection. Sensorgrams are evaluated by fitting a 1:1 dissociation model using the Biacore T100 Evaluation software v1.1.1.

B1: binds.

target: T3, human A-beta(1-40) peptide, monomeric …; assay: TR-FRET competition, mean IC50

B6 and B7 are within 1.5-fold of each other in IC50: 1.3 nM for the first, 1.8 nM for the second.

B8 and B9 are the same in IC50: 2.4 nM for the first, 2.4 nM for the second.

First: B10
Second: B11
The IC50 of the first is 4.4-fold lower: 3.2 nM for the first, 14 nM for the second. The first is the more potent here.

First: B12
Second: B13
The IC50 of the first is 4.6-fold higher: 110 nM for the first, 24 nM for the second.

First: B14
Second: B15
The IC50 of the first is 2.8-fold higher: 16 nM for the first, 5.8 nM for the second.

Compared with B16, B17 is 3-fold higher in IC50: 6 nM for the first, 18 nM for the second.

B18 and B19 are within 1.5-fold of each other in IC50: 5.1 nM for the first, 4.4 nM for the second.

Going from B20 to B21, the IC50 rises from 11 nM to 89 nM (8.1-fold).

B22 and B23 are within 1.5-fold of each other in IC50: 12 nM for the first, 13 nM for the second.

B24 and B25 are within 1.5-fold of each other in IC50: 4.9 nM for the first, 4 nM for the second.

Going from B26 to B27, the IC50 falls from 10 nM to 3.5 nM (2.9-fold). The second is the more potent here.

target: T3, human A-beta(1-40) peptide, monomeric …; assay: ABII050 TR-FRET competition assay

B28 was tested, and the IC50 was 0.31 nM.

target: T3, human A-beta(1-40) peptide, monomeric …; assay: TR-FRET competition, labelled ABII42D4

Compared with B29, B30 is 1.6-fold higher in IC50: 4.7 nM for the first, 7.3 nM for the second. The first is the more potent here.

B31 and B32 are within 1.5-fold of each other in IC50: 9.2 nM for the first, 10 nM for the second.

B33 and B34 are within 1.5-fold of each other in IC50: 5.3 nM for the first, 5 nM for the second.

First: B35
Second: B36
The IC50 of the first is 1.7-fold higher: 8.8 nM for the first, 5.1 nM for the second.

First: B37
Second: B38
The IC50 of the first is 2.2-fold higher: 19 nM for the first, 8.6 nM for the second.

B39 and B40 are within 1.5-fold of each other in IC50: 6 nM for the first, 6.1 nM for the second.

B41 gave an IC50 of 3.4 nM.

target: T3, human A-beta(1-40) peptide, monomeric …; assay: TR-FRET competition; labelled competitor not given

B6 and B7 are within 1.5-fold of each other in IC50: 1.3 nM for the first, 1.8 nM for the second.

B8 and B9 are the same in IC50: 2.4 nM for the first, 2.4 nM for the second.

Compared with B10, B11 is 4.4-fold higher in IC50: 3.2 nM for the first, 14 nM for the second.

First: B12
Second: B13
The IC50 of the first is 4.6-fold higher: 110 nM for the first, 24 nM for the second. The second is the more potent here.

Compared with B14, B15 is 2.8-fold lower in IC50: 16 nM for the first, 5.8 nM for the second. The second is the more potent here.

Going from B16 to B17, the IC50 rises from 6 nM to 18 nM (3-fold).

B18 and B19 are within 1.5-fold of each other in IC50: 5.1 nM for the first, 4.4 nM for the second.

Going from B20 to B21, the IC50 rises from 11 nM to 89 nM (8.1-fold).

B22 and B23 are within 1.5-fold of each other in IC50: 12 nM for the first, 13 nM for the second.

B24 and B25 are within 1.5-fold of each other in IC50: 4.9 nM for the first, 4 nM for the second.

Going from B26 to B27, the IC50 falls from 10 nM to 3.5 nM (2.9-fold). The second is the more potent here.

target: T3, human A-beta(1-40) peptide, monomeric …; assay: TR-FRET competition, labelled ABII60A10; extrapolated curve

With B1 the IC50 was 967 nM.
